Biological target: osteopontin (OPN) (Homo sapiens, UniProt P10451 P10451:17-314)
Experiment: filter; double-filter nitrocellulose, selection buffer, 37 C; OPN species not specified for this assay
Conditions: label: 5'-32P; stem-loop (predicted, mFold)
Procedure: The RNA-protein equilibrium dissociation constant (Kd) of OPN-R3 was characterized using the double-filter nitrocellulose filter binding method (Gopinath, Anal. Bioanal. Chem. 387:171 (2007)). For all binding assays, RNAs were dephosphorylated using bacterial alkaline phosphatase (Invitrogen, Carlsbad, Calif.) and 5′-end labeled using T4 polynucleotide kinase (New England Biolabs, Beverly, Mass.) and γ-³²P-ATP (MP Biomedicals, Solon, Ohio). Direct binding assays were carried out by incubating ³²P-labeled RNA at a concentration of less than 0.1 nM and target protein at concentrations ranging from 300 nM to 10 μM in selection buffer at 37° C. The fraction of RNA bound was quantified with a PhosphorImager (Molecular Dynamics, Sunnyvale, Calif.). Raw binding data were corrected for nonspecific background binding of radiolabeled RNA to the nitrocellulose filter.

Chain of osteopontin (OPN) (P10451 17-314, one chain of several): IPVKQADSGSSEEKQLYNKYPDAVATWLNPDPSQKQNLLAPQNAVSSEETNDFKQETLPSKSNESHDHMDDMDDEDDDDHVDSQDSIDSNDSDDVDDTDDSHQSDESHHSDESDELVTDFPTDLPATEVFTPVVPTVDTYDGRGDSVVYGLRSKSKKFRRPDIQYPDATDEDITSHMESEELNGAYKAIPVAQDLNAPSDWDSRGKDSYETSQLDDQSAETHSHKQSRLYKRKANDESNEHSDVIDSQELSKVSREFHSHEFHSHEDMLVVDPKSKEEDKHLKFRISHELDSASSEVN

Question: Which Kd does the source give for CGGCCACAGAAUGAAAAACCUCAUCGAUGUUGCAUAGUUG (ssRNA, 2'-F on all C and U) [OPN-R3 32P-labelled] here?
Answer: 18 nM
